# Test results: patent US20230105415A1 (ARIZONA BOARD OF REGENTSON BEHALF OF ARIZONA STATE …, published 2023)
# B1: 6D8 antibody (full 6D8 mAb without ZE3 fusion, construct HL) (antibody)
# heavy: not shown
# light: DVLMTQSPLSLPVTLGQPASISCRSSQSIVHSNGNTYLEWYLQKPGQSPKLLIYKASNRFSGVPDRFSGSGSGTDFTLKISRVEAEDAGVYYCLQGSHVPSTFGGGTKVEIKTVAAPSVFIFPPSDEQLKSGTASVVCLLNNFYPREAKVQWKVDNALQSGNSQESVTEQDSKDSTYSLSSTLTLSKADYEKHKVYACEVTHQGLSSPVTKSFNRGEC
# Target: T1, human complement C1q (human, UniProt P02745 23-245; P02746 28-253; P02747 29-245)
# T1 construct: also called human C1q
# Test: C1q binding ELISA, GnGn against wt plants (FIG. 9)
# T1 sequence (P02745 23-245 limits assumed, chain 1 of 3): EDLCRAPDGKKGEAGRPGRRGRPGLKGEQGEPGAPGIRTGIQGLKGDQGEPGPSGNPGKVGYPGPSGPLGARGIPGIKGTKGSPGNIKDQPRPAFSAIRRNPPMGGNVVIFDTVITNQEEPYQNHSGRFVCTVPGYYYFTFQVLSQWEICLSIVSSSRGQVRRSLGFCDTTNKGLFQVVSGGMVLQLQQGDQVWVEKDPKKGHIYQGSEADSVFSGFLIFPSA
# T1 sequence (P02746 28-253 limits assumed, chain 2 of 3): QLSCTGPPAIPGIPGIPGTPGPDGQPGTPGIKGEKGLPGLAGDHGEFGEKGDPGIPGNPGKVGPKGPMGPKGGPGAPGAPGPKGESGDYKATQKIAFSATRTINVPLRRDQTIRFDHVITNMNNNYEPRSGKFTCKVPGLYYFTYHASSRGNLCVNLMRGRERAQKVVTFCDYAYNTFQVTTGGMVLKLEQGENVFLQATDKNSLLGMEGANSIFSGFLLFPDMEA
# T1 sequence (P02747 29-245 limits assumed, chain 3 of 3): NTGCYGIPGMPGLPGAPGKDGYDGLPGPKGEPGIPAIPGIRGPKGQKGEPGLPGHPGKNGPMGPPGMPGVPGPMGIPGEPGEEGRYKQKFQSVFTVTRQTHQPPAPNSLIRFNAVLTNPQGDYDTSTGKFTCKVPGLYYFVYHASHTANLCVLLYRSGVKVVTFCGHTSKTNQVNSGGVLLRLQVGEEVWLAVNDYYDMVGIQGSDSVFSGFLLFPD
binder,measurement,value
B1,binding result,binds
